Reference: the supplement of paper PMC12042874
± gives the uncertainty stated by the source.

Experiment: amyloid nucleation score (Sup35N fusion, yeast selection) (log enrichment); library NNK1; higher = more nucleation; inactive = no reads after selection
Outline: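 Plasmid inserts were Illumina-sequenced at input and output from psi-negative yeast expressing Sup35N fused to peptides of 20 random codons. The yeast were induced with 100 μM copper sulfate for 24 hours and grown 7 days at 30°C on medium lacking adenine and uracil, and sequences with under 100 input reads were excluded. Nucleation score is the DiMSum log enrichment of output over input reads, centred on the mode score of non-aggregating sequences.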

| Substance | amyloid nucleation score |
| --- | --- |
| YSDPYAKWNDQR | 0.784 ± 0.76 |
| YSECQLSRARD | inactive |
| YSFALSVG | 0.874 ± 0.43 |
| YSFGVSTWLI | -0.396 ± 0.74 |
| YSFRGEHSTLCLDNVVKSFQ | inactive |
| YSGPGAQFIAMLNKLWCTAH | 1.23 ± 0.24 |
| YSIDLIPYRDYGNKTCHGIM | 2.27 ± 0.081 |
| YSISFSYHGVVCGSGSNRGV | -0.589 ± 0.63 |
| YSLAMRLVPGPPQDENHTVN | -1.94 ± 1.8 |
| YSLGVPSPRKILNVFGGTW | -0.101 ± 0.47 |
| YSLMLFESVSSGFKCSLRFA | -0.65 ± 0.42 |
| YSLNTSTAWESAAAVTW | 0.196 ± 0.4 |
| YSLSRCSSEDMSYVYWCSRS | 0.119 ± 0.32 |
| YSLVICNQNSFPNMVDIVLG | 2.53 ± 0.074 |
| YSNWTVSTSFSNHERHVFLA | 0.839 ± 0.39 |
| YSRGGFGHWFQHSL | -0.482 ± 1.7 |
| YSRLRVCTNSAMLELGFS | 1.03 ± 0.26 |
| YSTYQ | 0.369 ± 0.29 |
| YSVDQYSNTMRLTLHMLVFV | 0.455 ± 0.79 |
| YSVPVCGDMLTGWYCNKYKY | inactive |
| YSWILKKWVFVYSLFTSGHM | 0.278 ± 0.55 |
| YSYLV | -0.716 ± 0.84 |
| YTCLHGGSGVPPYLFQEHYS | 0.193 ± 0.39 |
| YTINPRKIRGTPPPIPCRVQ | 0.16 ± 0.73 |
| YTVLEGGALCFLKELRHRIL | -0.146 ± 0.32 |

| Substance | amyloid nucleation score |
| --- | --- |
| YVCIGFYSSPVLGIDFLGNK | 3.53 ± 0.11 |
| YVCPRSWVVRVRHQKTFQSY | -0.374 ± 0.81 |
| YVFSCTGLNR | -1.03 ± 1 |
| YVFSLVSESLQIIYHPLLLL | -0.189 ± 0.41 |
| YVIKKWTTCVLDFWHHFSFR | 0.583 ± 0.48 |
| YVILFVIVVGSA | 0.654 ± 0.84 |
| YVLRPFGLLKWSNSVGPHER | -0.106 ± 1.2 |
| YVMDMIYFYDGLVWSCLCWI | inactive |
| YVNFLGLLDCEL | -0.028 ± 0.48 |
| YVRRSCSSRESYSCNCLYVY | 0.532 ± 0.92 |
| YVSCFRG | 0.925 ± 0.3 |
| YVSVVCLFVPDKFRNVTDL | 6.87 ± 0.073 |
| YVSYRIVLGRMPGMKHSRKR | 3.6 ± 0.088 |
| YVVLASVMLITYVRA | 0.786 ± 0.38 |
| YVVNGYSICGFDAEVIVLQL | 1.19 ± 0.18 |
| YWCAISSVSLKFLVMSYLSG | -0.362 ± 1.1 |
| YWDKMTLTKNFKWLDLLGVG | inactive |
| YWKSIRPILIEC | inactive |
| YWNMTCNTV | -0.139 ± 0.52 |
| YWSLVVAAWRMENGWHGFLL | 0.059 ± 0.39 |
| YYFIFII | 4.79 ± 0.074 |
| YYLSLMYSTLYRTKIFWARE | -0.077 ± 0.79 |
| YYNVCHNRINLVTSWFFYRR | 0.946 ± 0.78 |
| YYTCGMYPIYRCCLRTMYSA | -0.494 ± 0.22 |
| YYWVT | -1.16 ± 2.4 |
